Measured values published in US11026999B2, “Insulin glargine/lixisenatide fixed ratio formulation” (SANOFI-AVENTIS DEUTSCHLAND GMBH, priority 2013, dated 2021).

Experiments:
Body weight (Example 1) = format: in vivo, human; conditions: for Body weight change from baseline to Week 24 (LOCF), LS Mean (SE): ANCOVA
From the text: (§1) Criteria for Evaluation: • Efficacy: • Primary Endpoint: • Change in HbA1c from baseline to Week 24 • Secondary Endpoints: • Change in 2-hour PPG during meal test from baseline to Week 24 • Change in 2-hour plasma glucose excursion during meal test from baseline to Week 24 • Percentage of patients reaching HbA1c ≤6.5% or <7% at Week 24 • Change in 7-point SMPG profiles from baseline to Week 24 (each time point and mean daily value) • Change in body weight from baseline to Week 24, • Average daily Insulin glargine dose at Week 24 • Change in FPG from baseline to Week 24 • Percentage of patients requiring rescue therapy during the 24-week open-label treatment period • Change in 30-minute and 1-hour PPG and plasma glucose excursion during meal test from baseline to week 24 • Percentage of patients reaching HbA1c <7% at week 24 with no documented symptomatic hypoglycemia during the 24-week open label treatment period • Percentage of patients reaching HbA1c <7% with no weight gain at week 24
(§2) All continuous secondary efficacy endpoints were analyzed using a similar ANCOVA model with treatment, randomization strata of screening HbA1c (<8%, ≥8%), randomization strata of screening BMI (<30 kg/m^2, ≥30 kg/m^2) and country as fixed effects and using the baseline value of the corresponding parameter as a covariate. Insulin glargine dose was not included in the ANCOVA model as a covariate since patients enrolled were insulin-naïve.

type 2 diabetic patients [1] = assay: Injection site reactions and allergic reactions adjudicated by ARAC (Example 1); format: in vivo, human
From the text: A total of 6 patients (5 patients in the combination group and 1 patient in the insulin glargine group) experienced injection site reactions (Table 19). None of these reactions were considered serious or severe or led to treatment discontinuation.
A total of 2 patients (1 [0.6%] in each group) reported 6 events positively adjudicated as allergic reactions by the ARAC with the same diagnosis of allergic rhinitis. None was adjudicated as possibly related to the IMP (table 20).

type 2 diabetic patients [2] = assay: 2-hour postprandial plasma glucose during standardized meal test (Example 1); format: in vivo, human; conditions: mITT; for 2-hour postprandial plasma glucose change from baseline to Week 24 (LOCF), LS Mean (SE): ANCOVA
From the text: as §1, §2

type 2 diabetic patients [3] = conditions: in vivo
Experimental: Safety: The safety analysis was conducted on the safety population, defined as all randomized patients who received at least one dose of IMP (regardless of the amount of treatment administered). The evaluation of AEs, laboratory, vital sign, and ECG data was descriptive.

type 2 diabetic patients [4] = assay: 2-hour plasma glucose excursion during standardized meal test (Example 1); format: in vivo, human; conditions: mITT population; for 2-hour plasma glucose excursion change from baseline to Week 24 (LOCF), LS Mean (SE): ANCOVA
From the text: The diabetes type 2 patient may have a glucose excursion (in particular a 2-hour postprandial glucose excursion of at least 2 mmol/L, at least 3 mmol/L, at least 4 mmol/L, at least 5 mmol/L, at least 5.5 mmol/L, at least 6 mmol/L, at least 6.5 mmol/L, or at least 7 mmol/L at the onset of the treatment with the composition of the present invention. In the present invention, the glucose excursion is in particular the difference of the 2-hour postprandial plasma glucose concentration and the plasma glucose concentration 30 minutes prior to a meal test.
as §1, §2

type 2 diabetic patients [5] = assay: Lipase, amylase and calcitonin monitoring (Example 1); design: species or system human; conditions: in vivo
From the text: Per protocol, any increase in amylase and/or lipase above twice the upper limit of normal range (ULN) or in Calcitonin ≥20 pg/mL that had been confirmed by a repeat measurement was to be monitored and documented on a specific AE form. […] No patients reported a TEAE of increased calcitonin (≥20 pg/mL).
The number of patients who had at least 1 value of lipase or amylase ULN, or at least 1 value of calcitonin ≥20 pg/ml during the on-treatment period was also summarized. One patient in the insulin glargine group had at least 1 value of amylase ≥3 ULN, and 5 patients (4 in the combination group and 1 in the insulin glargine group) had at least 1 value of lipase ≥3 ULN. One patient in the insulin glargine group had 1 value of calcitonin ≥20 pg/ml (but <50 pg/ml) with retested values within the normal range.

[6] = investigator reported terms, Safety population

Gly(A21)-Arg(B31)-Arg(B32)-human insulin [Insulin Glargine]
Body weight at Week 24 (LOCF), Mean (SD) (Body weight (Example 1); mITT population): 92.09 (16.30) kg | Body weight at Week 24 (LOCF), Median (Body weight (Example 1); mITT population): 91.00 kg | Body weight change from baseline to Week 24 (LOCF), Mean (SD) (Body weight (Example 1); mITT population): 0.39 (2.96) kg | Body weight change from baseline to Week 24 (LOCF), Median (Body weight (Example 1); mITT population): 0.35 kg | Body weight change from baseline to Week 24 (LOCF), LS Mean (SE) (Body weight (Example 1); mITT population): 0.48 (0.282) kg | Body weight change from baseline to Week 24 (LOCF), LS Mean (SE) (Body weight (Example 1); mITT population, listed as insulin glargine): +0.48 kg | LS mean body weight increase from baseline to week 24 (Body weight (Example 1); worded as increased by): 0.48 kg | Injection site reaction (type 2 diabetic patients [1]; ARAC diagnosis terms, Safety population): 0 n (%) | Rhinitis allergic (ARAC diagnosis ALLERGIC RHINITIS) (type 2 diabetic patients [1]; Not related to IMP, Safety population): 1 (0.6%) n (%) | Events adjudicated as an allergic reaction by ARAC (type 2 diabetic patients [1]; Not related to IMP, TEAE period, Safety population): 1 (0.6%) n (%) | Any injection site reactions (type 2 diabetic patients [1]; TEAE period, Safety population): 1 (0.6%) n (%) | Injection site reactions: PTs coded from the ARAC diagnosis terms (type 2 diabetic patients [1]; TEAE period, Safety population): 0 n (%) | Injection site reactions: PTs coded from the investigator reported terms (type 2 diabetic patients [1]; TEAE period, Safety population): 1 (0.6%) n (%) | Patients who experienced injection site reactions (type 2 diabetic patients [1]; in vivo): 1 patients | Injection site pain (type 2 diabetic patients [1]; [6]): 1 (0.6%) n (%) | Injection site pruritus (type 2 diabetic patients [1]; [6]): 0 n (%) | Injection site rash (type 2 diabetic patients [1]; [6]): 0 n (%) | Injection site urticaria (type 2 diabetic patients [1]; [6]): 0 n (%) | Rhinitis allergic (ARAC diagnosis ALLERGIC RHINITIS) (type 2 diabetic patients [1]; relationship to study treatment: All, Safety population): 1 (0.6%) n (%) | Events adjudicated as an allergic reaction by ARAC (type 2 diabetic patients [1]; relationship to study treatment: All, TEAE period, Safety population): 1 (0.6%) n (%) | 2-hour postprandial plasma glucose at Week 24 (LOCF), Mean (SD) (type 2 diabetic patients [2]): 11.55 (2.83) mmol/L | 2-hour postprandial plasma glucose at Week 24 (LOCF), Median (type 2 diabetic patients [2]): 11.10 mmol/L | 2-hour postprandial plasma glucose change from baseline to Week 24 (LOCF), Mean (SD) (type 2 diabetic patients [2]): −3.96 (4.05) mmol/L | 2-hour postprandial plasma glucose change from baseline to Week 24 (LOCF), Median (type 2 diabetic patients [2]): -3.90 mmol/L | 2-hour postprandial plasma glucose change from baseline to Week 24 (LOCF), LS Mean (SE) (type 2 diabetic patients [2]): −4.33 (0.274) mmol/L | 2-hour postprandial plasma glucose change from baseline to Week 24 (LOCF), LS Mean (SE) (type 2 diabetic patients [2]; listed as insulin glargine): -4.33 mmol/L | TEAE: HLGT: Infections - pathogen unspecified (type 2 diabetic patients [3]): 31 (19.1%) n (%) | TEAE: HLGT: Ocular infections, irritations and inflammations (type 2 diabetic patients [3]): 4 (2.5%) n (%) | TEAE: HLGT: Viral infectious disorders (type 2 diabetic patients [3]): 8 (4.9%) n (%) | TEAE: HLT: Abdominal and gastrointestinal infections (type 2 diabetic patients [3]): 1 (0.6%) n (%) | TEAE: HLT: Conjunctival infections, irritations and inflammations (type 2 diabetic patients [3]): 2 (1.2%) n (%) | TEAE: HLT: Diarrhoea (excl infective) (type 2 diabetic patients [3]): 6 (3.7%) n (%) | TEAE: HLT: Upper respiratory tract infections (type 2 diabetic patients [3]): 21 (13.0%) n (%) | TEAE: HLT: Urinary tract infections (type 2 diabetic patients [3]): 3 (1.9%) n (%) | TEAE: Infections and infestations (type 2 diabetic patients [3]): 38 (23.5%) n (%) | TEAE: Upper respiratory tract infection (type 2 diabetic patients [3]): 5 (3.1%) n (%) | TEAE: Urinary tract infection (type 2 diabetic patients [3]): 1 (0.6%) n (%) | Treatment emergent SAE: HLGT: Infections - pathogen unspecified (type 2 diabetic patients [3]): 1 (0.6%) n (%) | Treatment emergent SAE: HLT: Urinary tract infections (type 2 diabetic patients [3]): 1 (0.6%) n (%) | Treatment emergent SAE: Infections and infestations (type 2 diabetic patients [3]): 1 (0.6%) n (%) | Treatment emergent SAE: Urinary tract infection (type 2 diabetic patients [3]): 1 (0.6%) n (%) | TEAE: HLT: Dental and oral soft tissue infections (type 2 diabetic patients [3]; po): 3 (1.9%) n (%) | 2-hour plasma glucose excursion at Week 24 (LOCF), Mean (SD) (type 2 diabetic patients [4]): 5.33 (2.79) mmol/L | 2-hour plasma glucose excursion at Week 24 (LOCF), Median (type 2 diabetic patients [4]): 5.05 mmol/L | 2-hour plasma glucose excursion change from baseline to Week 24 (LOCF), Mean (SD) (type 2 diabetic patients [4]): −0.61 (3.03) mmol/L | 2-hour plasma glucose excursion change from baseline to Week 24 (LOCF), Median (type 2 diabetic patients [4]): -0.75 mmol/L | 2-hour plasma glucose excursion change from baseline to Week 24 (LOCF), LS Mean (SE) (type 2 diabetic patients [4]): −0.67 (0.269) mmol/L | 2-hour plasma glucose excursion change from baseline to Week 24 (LOCF), LS Mean (SE) (type 2 diabetic patients [4]; listed as insulin glargine): -0.67 mmol/L | Patients with 1 value of calcitonin ≥20 pg/ml (but <50 pg/ml) (type 2 diabetic patients [5]): One | Patients with TEAE of amylase increased (>2 ULN) reported on the specific AE form (type 2 diabetic patients [5]): 1 patient | Patients with TEAE of lipase increased (>2 ULN) reported on the specific AE form (type 2 diabetic patients [5]): 1 [0.6%] n (%) | Patients with at least 1 value of amylase ≥3 ULN (type 2 diabetic patients [5]): One | Patients with at least 1 value of lipase ≥3 ULN (type 2 diabetic patients [5]): 1 patients
